37 molecules from US20130096072A1 (Genentech, published 2013) can be followed below.

Bridges are numbered along the chain shown (N, C = ends). Where no end group is shown, it is not given here. [ ]: non-standard residue; d: D form. Hyp = O=C(O)[C@@H]1C[C@@H](O)CN1

A word on the Kd: it is the concentration at which binding is half-saturated. Read a high Kd as a looser complex.

B1: IVdG.14 peptide (peptide)
peptide: IV[dD]GYPWWMDV-NH2
notes: Printed as I V d G Y P W W M D V, d = D-aspartic acid
B2: ZAP.67 phage clone (ZAPtide Library) (peptide)
chain: IVGGPHKAFLL
modifications: not fully specified; also: fused before M13 gene VIII coat protein, linker not given here
notes: not shown: M13 gene VIII coat protein fused after the peptide
B3: ZAP.01a phage clone (ZAPtide Library) (peptide)
chain: IVGGVRCWVSN
modifications: not fully specified
notes: Not the 15-mer ZAP.01; not shown: M13 gene VIII coat protein fused after the peptide
B4: ZAP.39 phage clone (ZAPtide Library) (peptide)
chain: IVGGSACLIAM
modifications: not fully specified
notes: as for B2
B5: ZAP.24 phage clone (ZAPtide Library) (peptide)
chain: IVGGCKRSYWE
modifications: not fully specified
notes: as for B2
B6: ZAP.63 phage clone (ZAPtide Library) (peptide)
chain: IVGGMRLCGYI
modifications: not fully specified; also: fused before M13 gene VIII coat protein, linker not given here
notes: as for B2
B7: ZAP.04 phage clone (ZAPtide Library) (peptide)
chain: IVGGSDFPWWV
modifications: not fully specified
notes: as for B2
B8: ZAP.06 phage clone (ZAPtide Library) (peptide)
chain: IVGGDGMPWWI
modifications: not fully specified
notes: as for B2
B9: ZAP.25 phage clone (ZAPtide Library) (peptide)
chain: IVGGNKIWSVS
modifications: not fully specified
notes: as for B2
B10: ZAP.53 phage clone (ZAPtide Library) (peptide)
chain: IVGGYPWWVDV
modifications: not fully specified
notes: as for B2
B11: ZAP.11 phage clone (ZAPtide Library) (peptide)
chain: IVGGHPMSPFS
modifications: not fully specified
notes: as for B2
B12: ZAP.30 phage clone (ZAPtide Library) (peptide)
chain: IVGGYPAWMEY
modifications: not fully specified
notes: as for B2
B13: ZAP.50 phage clone (ZAPtide Library) (peptide)
chain: IVGGDYYWVVQ
modifications: not fully specified
notes: as for B2
B14: ZAP.29 phage clone (ZAPtide Library) (peptide)
chain: IVGGTRCNDWI
modifications: not fully specified
notes: as for B2
B15: ZAP.65 phage clone (ZAPtide Library) (peptide)
chain: IVGGEPAYWYW
modifications: not fully specified; also: fused before M13 gene VIII coat protein, linker not given here
notes: as for B2
B16: ZAP.32 phage clone (ZAPtide Library) (peptide)
chain: IVGGEPVWYVW
modifications: not fully specified
notes: as for B2
B17: ZAP.13 phage clone (ZAPtide Library) (peptide)
chain: IVGGYPWWITG
modifications: not fully specified
notes: as for B2
B18: ZAP.03 phage clone of Table 4B (ZAPtide Library, SEQ ID NO:129) (peptide)
chain: IVGGDFYSSYW
modifications: not fully specified
notes: as for B2
B19: ZAP.45 phage clone (ZAPtide Library) (peptide)
chain: IVGGKWQRKRV
modifications: not fully specified
notes: as for B2
B20: ZAP.91 phage clone (ZAPtide Library) (peptide)
chain: IVGGYPVYFLN
modifications: not fully specified; also: fused before M13 gene VIII coat protein, linker not given here
notes: as for B2
B21: ZAP.43 phage clone (ZAPtide Library) (peptide)
chain: IVGGDPVYVLY
modifications: not fully specified
notes: as for B2
B22: ZAP.09 phage clone (ZAPtide Library) (peptide)
chain: H-IVGGDYWWVPI
modifications: not fully specified
notes: as for B2
B23: ZAP.54 phage clone (ZAPtide Library) (peptide)
chain: IVGGLDVEYEL
modifications: not fully specified
notes: as for B2
B24: ZAP.15 phage clone (ZAPtide Library) (peptide)
chain: IVGGDPWWFVS
modifications: not fully specified
notes: as for B2
B25: ZAP.18 phage clone (ZAPtide Library) (peptide)
chain: IVGGFVFWCDQ
modifications: not fully specified
notes: as for B2
B26: ZAP.52 phage clone (ZAPtide Library) (peptide)
chain: IVGGLWEMWVT
modifications: not fully specified
notes: as for B2
B27: IVGG.14 phage clone (ZAPtide Library) (peptide)
chain: IVGGYPWWMDV
modifications: not fully specified
notes: as for B2
B28: ZAP.03S peptide (peptide)
peptide: IIGGSPYWMDREESI-NH2
notes: ZAP.03 with both cysteines changed to serine; no disulfide

The target of one series is T1, scHGF β-chain (zymogen-like HGF β, residues Asn479 to Ser728, R494E, C-terminal His-tag) (human, UniProt P14210 479-728).
T1 construct: Expressed in insect cells; also called zHGF β; zymogen-like form of HGF β; not shown: C-terminal His-tag
T1 sequence (P14210 479-728 R494E): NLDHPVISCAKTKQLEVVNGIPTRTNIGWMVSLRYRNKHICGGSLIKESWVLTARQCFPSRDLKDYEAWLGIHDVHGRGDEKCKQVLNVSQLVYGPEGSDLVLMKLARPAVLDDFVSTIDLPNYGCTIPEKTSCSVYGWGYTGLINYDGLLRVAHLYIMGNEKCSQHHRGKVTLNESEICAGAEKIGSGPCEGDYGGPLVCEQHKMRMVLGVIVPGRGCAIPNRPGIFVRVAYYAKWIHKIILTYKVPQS
Description: BLI scHGF β activation/Met binding assay.
For IIGGY[Hyp]WWMDV-NH2 (Printed as I I G G Y hyP W W M D V) [IIhyP.14 peptide], the “fold better than IVGG.14” value is 7 fold and the “fold better than the previously described peptide activators” value was above 400 fold. As to B1, the “fold better than peptides previously described” value was determined as 100 fold. As for IIGGCPYWMDREECI-NH2 (disulfide 5-14, also called ZAP2.3; ZAP.-3) [ZAP.03 (cyclic 15-mer synthetic peptide)], the “fold improvement relative to IVGG.14” value is around 100 fold. As for IVGGY[Hyp]WWMDV-NH2 (Printed as I V G G Y hyP W W M D V) [IVhyP.14 peptide], the “fold enhancement relative to IVGG.14” value came out at 2 fold.

The next series deals with T1, scHGF β-chain (zymogen-like HGF β, …). Description: phage panning against scHGF β (4 rounds) and phage ELISA. From the text: The pfam database (Finn, R. D. et al. (2010) Nucleic Acids Res 38: D211-22) was used to derive a consensus sequence for trypsin/chymotrypsin-like serine proteases and identify the N-terminal IVGG motif. Peptide libraries were synthesized as fusions to the gene VIII coat protein of M13 phage and panned against scHGF β as previously described (Tonikian, R. et al. (2007) Nat Protoc 2: 1368-86; Sidhu, S. S. et al. (2000) Methods Enzymol. 328:333-63). […] Single phage clones were picked, grown overnight and a standard phage ELISA was used to verify target specific binding. Once the IVGG.14 sequence was identified, soft randomization on gene VIII was performed on positions X₂-X₁₁.
In general terms: An ELISA detects its analyte on a solid surface through an enzyme-linked reagent.
As for B2, the binding result was “binds”. On the same count and under the same terms, to B3 belongs “binds”. Take B4: the binding result was “binds”.

Regarding B5, the binding result is listed as “binds”.

With B6, the binding result was “binds”.

B7: the binding result is “binds”.

In the case of B8, the binding result is “binds”.

Turning to B9, the binding result is “binds”. On the same count and under the same terms, to B10 belongs “binds”; to B11, “binds”.

B12: the binding result is recorded as “binds”. The same measure, in the same setting: to B13 belongs “binds”. Still for that read-out and setting: to B14 belongs “binds”; to B15, “binds”; to B16, “binds”. With B17, the binding result is recorded as “binds”. On the same count and under the same terms, to B18 belongs “binds”. For B19, the binding result is “binds”. B20: the binding result was “binds”. Still for that read-out and setting: in the case of B21 it was “binds”. As to B22, the binding result is reported as “binds”. The same measure, in the same setting: to B23 belongs “binds”. Still for that read-out and setting: in the case of B24 it was “binds”; in that of B25, “binds”; in that of B26, “binds”. For B27, the binding result is “binds”.

The next series shares this target. Description: cell-based or functional assay.
Consider IVGGYPWAMDV-NH2 [IVGG.14 W8A variant], for which the “activity (alanine scanning of the YPWWM turn motif), loss against IVGG.14” value came out at 10 fold. For the molecule IVGGYAWWMDV-NH2 [IVGG.14 P6A variant], the “activity (alanine scanning of the YPWWM turn motif), loss against IVGG.14” value was determined as 25 fold.

For another series, the target named is scHGF (non-cleavable form of full-length pro-HGF with a mutated cleavage site) (human, UniProt P14210 32-728). Briefly: cell-based or functional assay.
scHGF (non-cleavable form of full-length pro-HGF with a mutated cleavage site), sequence (P14210 32-728 limits assumed, change not shown): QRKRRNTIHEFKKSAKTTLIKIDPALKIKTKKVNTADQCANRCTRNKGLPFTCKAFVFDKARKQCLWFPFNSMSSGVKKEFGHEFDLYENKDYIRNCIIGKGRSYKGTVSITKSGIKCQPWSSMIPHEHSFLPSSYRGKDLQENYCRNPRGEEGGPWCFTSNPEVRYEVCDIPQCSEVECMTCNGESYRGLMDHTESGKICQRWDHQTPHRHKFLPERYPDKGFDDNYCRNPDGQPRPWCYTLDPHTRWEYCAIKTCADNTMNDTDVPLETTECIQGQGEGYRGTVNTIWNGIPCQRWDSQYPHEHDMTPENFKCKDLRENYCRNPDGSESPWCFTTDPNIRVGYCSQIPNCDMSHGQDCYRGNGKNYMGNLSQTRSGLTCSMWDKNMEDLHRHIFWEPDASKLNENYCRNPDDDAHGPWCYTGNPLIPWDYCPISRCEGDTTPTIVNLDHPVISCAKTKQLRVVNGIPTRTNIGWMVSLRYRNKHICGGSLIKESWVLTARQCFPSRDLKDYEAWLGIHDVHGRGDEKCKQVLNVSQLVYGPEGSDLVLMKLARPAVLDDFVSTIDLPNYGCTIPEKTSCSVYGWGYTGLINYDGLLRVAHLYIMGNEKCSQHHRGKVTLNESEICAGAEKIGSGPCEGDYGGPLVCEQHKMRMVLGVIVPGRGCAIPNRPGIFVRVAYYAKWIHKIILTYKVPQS
Take B1: the “EC50, BxPC-3 cell survival assay, peptide titrated with scHGF” value is around 20 µM.

On to IIGGCPYWMDREECI-NH2 (disulfide 5-14, also called ZAP2.3; ZAP.-3) [ZAP.03 (cyclic 15-mer synthetic peptide)], for which the “EC50, HeLa cell migration in an in vitro wound closure assay” value was determined as 0.06 µM and the “EC50, cell survival of BxPC3 cells during serum starvation” value came to 0.4 µM.

A further series deals with IVGG.147A peptide.
Assay: not given
Consider Protein C (zymogen), for which the “initial rate of hydrolysis (Vi) of Ile-Pro-Arg-pNA, 100 nM enzyme, 2 mM substrate” value was “the initial rate of substrate hydrolysis (Vi) for both prethrombin-2 and Protein C zymogens significantly increased upon titration of IVGG.147A into the reaction”. Same read-out and setting: in the case of prethrombin-2 it was “the initial rate of substrate hydrolysis (Vi) for both prethrombin-2 and Protein C zymogens significantly increased upon titration of IVGG.147A into the reaction”.

A further series deals with T1, scHGF β-chain (zymogen-like HGF β, …). Briefly: BLI (OctetRed) scHGF β activation/Met binding assay: peptide titrated into 0.5 µM scHGF β over biotinylated Met Sema/PSI on streptavidin tips; steady-state single-site fit. The method, then: Met binding assays were carried out utilizing the OctetRed™ biolayer interferometry instrument (ForteBio, Inc.) as reported previously (Landgraf, K. E. et al. (2010) J Biol Chem 285: 40362-72). Biotinylated Met ECD (Sema/PSI-AviTag) was captured on the surface of streptavidin optical sensor tips (SA biosensors, ForteBio, Inc.), and transferred into buffer containing 0.5 μM scHGF β-chain variants in the presence of increasing concentration of indicated peptides. Association and dissociation reactions were monitored to ensure reversible binding between scHGF β and Met. Binding was quantified using the steady-state levels of surface response from the association reaction. Equilibrium constants were derived by least squares fitting of the titration data to a single-site binding equation. Errors reported are ±stdev of n=3 independent experiments.
Based on the finding that the consensus ZAPs contain features consistent with binding and inserting into the activation pocket, several related peptides were synthesized and utilized in a previously established scHGF β activation assay to assess their affinities and ability to active Met binding (Landgraf, K. E. et al. (2010) J Biol Chem 285: 40362-72). Since scHGF β can only weakly interact with the Met Sema-PSI domain compared to the active HGF β form, biolayer interferometry was used in the activation assay to measure the ability of a peptide to directly enhance the binding affinity of scHGF β to a streptavidin sensor surface coated with biotinylated Met (Landgraf, K. E. et al. (2010) J Biol Chem 285: 40362-72). Thus, titration of an activator peptide should result in a significant increase in the surface response signal due to enhanced scHGF β binding to Met.
In turn, B28 registered a Kd of 59 µM. Regarding IIGGY[Hyp]WWMDV-NH2 (Printed as I I G G Y hyP W W M D V) [IIhyP.14 peptide], the Kd worked out at 5 µM. This Kd is about 12-fold lower than that of the molecule before. Still for that read-out and setting: in the case of B1 it was 21 µM; in that of IVDGYPWWMDV-NH2 [IVDG.14 peptide], 85 µM. On the same count and under the same terms, in the case of IIGGCPYWMDREECI-NH2 (disulfide 5-14, also called ZAP2.3; ZAP.-3) [ZAP.03 (cyclic 15-mer synthetic peptide)] it was 0.3 µM. IIGGDPYWVPHPGDA-NH2 [ZAP.01 (linear 15-mer synthetic peptide)] gave a Kd of 6 µM. This Kd is about 20-fold higher than that of the molecule before.

IVGGY[Hyp]WWMDV-NH2 (Printed as I V G G Y hyP W W M D V) [IVhyP.14 peptide] returned a Kd of 14 µM.
